Source: the supplement of paper PMC10065799, “High-throughput profiling of sequence recognition by tyrosine kinases and SH2 domains using bacterial peptide display” (eLife, 2023)

Tested on: AncSZ
Test: phosphorylation enrichment, bacterial display (enrichment ratio); higher = better substrate or ligand; peptides without Tyr show the background
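Also: 11-residue human phosphosite peptides and single-mutation variants displayed on the E. coli surface, counted by deep sequencing, each peptide's frequency after selection divided by its frequency in the unselected input library; frequency after pTyr selection over input frequency; kinase dosed for 20-30% of maximal phosphorylation in three min.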

Sequence | phosphorylation enrichment
AFGNLYGSRKQ [YIPF7_Y59_YF] | 0.526
ELANFYKLHHI [AK7_Y391_YF] | 0.63
QMVGKYASSFM [AVPR2_Y124_M123K_YF] | 0.613
RSSKMYLKTRS [LPL_Y329] | 1.07
CGTPDYIAREI [PRKCG_Y521_P524R] | 1.26
LTQRTYMSENN [GPAA1_Y49_A54N] | 1.11
QNTGHYSSDNT [TMEFF2_Y361] | 0.461
KGEDFYCVTCH [FHL1_Y149] | 1.09
KFLENYFDLEK [MMP3_Y41_K45E_YF] | 1.39
VKGGAYFPVTV [MCCC2_Y145_YF] | 0.703
EQMLEYMEQLQ [CFAP45_Y289] | 1.21
DLWEKYMDCGG [HAP1_Y440_R437W] | 1.44
VPANRYDLLCL [FARSB_Y72] | 0.808
TLCLCYKEIEE [ATP8B1_Y658] | 1.63
NNIDYYKNTTN [FGFR2_Y657_K659N] | 0.756

Molecular target: EPHB1 (UniProt P54762)
Sequence (P54762 whole entry, looked up): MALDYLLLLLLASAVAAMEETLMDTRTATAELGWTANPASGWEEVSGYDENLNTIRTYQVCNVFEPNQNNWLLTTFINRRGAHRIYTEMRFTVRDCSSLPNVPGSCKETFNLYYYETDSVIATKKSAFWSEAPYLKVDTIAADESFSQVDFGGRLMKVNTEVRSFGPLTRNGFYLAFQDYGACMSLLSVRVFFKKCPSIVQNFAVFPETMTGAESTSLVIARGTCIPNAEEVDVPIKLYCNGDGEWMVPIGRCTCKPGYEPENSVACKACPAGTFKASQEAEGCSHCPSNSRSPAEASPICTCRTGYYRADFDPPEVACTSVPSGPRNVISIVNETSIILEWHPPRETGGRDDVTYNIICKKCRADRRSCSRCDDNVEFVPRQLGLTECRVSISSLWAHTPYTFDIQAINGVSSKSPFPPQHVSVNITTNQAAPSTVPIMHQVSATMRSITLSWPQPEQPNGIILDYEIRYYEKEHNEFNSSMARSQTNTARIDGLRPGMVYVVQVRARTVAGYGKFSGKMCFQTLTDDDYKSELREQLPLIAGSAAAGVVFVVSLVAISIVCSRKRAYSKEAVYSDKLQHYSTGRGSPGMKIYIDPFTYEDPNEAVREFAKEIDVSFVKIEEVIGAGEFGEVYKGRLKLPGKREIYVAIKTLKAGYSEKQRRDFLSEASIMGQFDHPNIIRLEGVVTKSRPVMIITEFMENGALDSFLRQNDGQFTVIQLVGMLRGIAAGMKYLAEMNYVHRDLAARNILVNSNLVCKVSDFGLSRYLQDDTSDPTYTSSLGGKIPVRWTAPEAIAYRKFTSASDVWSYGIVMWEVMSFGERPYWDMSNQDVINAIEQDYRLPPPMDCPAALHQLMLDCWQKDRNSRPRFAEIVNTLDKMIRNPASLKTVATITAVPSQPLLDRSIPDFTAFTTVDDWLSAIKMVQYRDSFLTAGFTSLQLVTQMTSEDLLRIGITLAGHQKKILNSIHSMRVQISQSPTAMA
Test: as above

Sequence | phosphorylation enrichment
AFGNLYGSRKQ [YIPF7_Y59_YF] | 0.357
ELANFYKLHHI [AK7_Y391_YF] | 0.638
QMVGKYASSFM [AVPR2_Y124_M123K_YF] | 0.772
RSSKMYLKTRS [LPL_Y329] | 0.484
CGTPDYIAREI [PRKCG_Y521_P524R] | 0.724
LTQRTYMSENN [GPAA1_Y49_A54N] | 0.783
QNTGHYSSDNT [TMEFF2_Y361] | 0.446
KGEDFYCVTCH [FHL1_Y149] | 0.696
KFLENYFDLEK [MMP3_Y41_K45E_YF] | 2.5
VKGGAYFPVTV [MCCC2_Y145_YF] | 0.372
EQMLEYMEQLQ [CFAP45_Y289] | 0.579
DLWEKYMDCGG [HAP1_Y440_R437W] | 0.976
VPANRYDLLCL [FARSB_Y72] | 0.58
TLCLCYKEIEE [ATP8B1_Y658] | 1.05
NNIDYYKNTTN [FGFR2_Y657_K659N] | 0.359

Molecular target: EPHB2 (UniProt P29323)
Sequence (P29323 whole entry, looked up): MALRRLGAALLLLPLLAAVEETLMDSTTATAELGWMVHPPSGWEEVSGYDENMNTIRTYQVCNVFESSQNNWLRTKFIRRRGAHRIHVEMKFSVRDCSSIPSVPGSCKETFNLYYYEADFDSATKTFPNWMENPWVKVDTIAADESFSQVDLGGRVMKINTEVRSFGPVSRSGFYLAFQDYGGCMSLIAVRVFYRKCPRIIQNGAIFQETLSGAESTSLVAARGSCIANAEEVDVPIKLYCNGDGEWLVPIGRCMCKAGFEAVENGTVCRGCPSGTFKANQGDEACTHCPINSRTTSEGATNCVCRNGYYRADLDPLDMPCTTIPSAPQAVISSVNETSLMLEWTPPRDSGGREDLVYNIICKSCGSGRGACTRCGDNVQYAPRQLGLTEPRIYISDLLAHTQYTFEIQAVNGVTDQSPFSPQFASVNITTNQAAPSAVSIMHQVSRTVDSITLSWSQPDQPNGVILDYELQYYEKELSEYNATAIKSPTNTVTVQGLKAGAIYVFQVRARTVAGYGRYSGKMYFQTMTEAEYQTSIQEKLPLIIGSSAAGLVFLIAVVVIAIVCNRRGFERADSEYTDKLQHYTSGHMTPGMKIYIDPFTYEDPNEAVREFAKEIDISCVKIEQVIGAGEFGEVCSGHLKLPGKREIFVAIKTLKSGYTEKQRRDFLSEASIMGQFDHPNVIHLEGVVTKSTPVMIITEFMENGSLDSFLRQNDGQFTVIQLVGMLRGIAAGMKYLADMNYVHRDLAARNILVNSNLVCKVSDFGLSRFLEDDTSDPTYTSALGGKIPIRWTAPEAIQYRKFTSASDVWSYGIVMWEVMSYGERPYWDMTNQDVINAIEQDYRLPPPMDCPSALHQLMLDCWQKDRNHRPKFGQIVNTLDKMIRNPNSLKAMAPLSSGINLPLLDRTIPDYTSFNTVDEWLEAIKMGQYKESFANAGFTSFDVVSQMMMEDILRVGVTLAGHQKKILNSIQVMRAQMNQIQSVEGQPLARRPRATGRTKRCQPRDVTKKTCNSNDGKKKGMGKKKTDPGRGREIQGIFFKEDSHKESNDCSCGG
Test: as above

Sequence | phosphorylation enrichment
AFGNLYGSRKQ [YIPF7_Y59_YF] | 0.531
ELANFYKLHHI [AK7_Y391_YF] | 0.863
QMVGKYASSFM [AVPR2_Y124_M123K_YF] | 0.341
RSSKMYLKTRS [LPL_Y329] | 0.792
CGTPDYIAREI [PRKCG_Y521_P524R] | 0.622
LTQRTYMSENN [GPAA1_Y49_A54N] | 0.879
QNTGHYSSDNT [TMEFF2_Y361] | 0.442
KGEDFYCVTCH [FHL1_Y149] | 0.569
KFLENYFDLEK [MMP3_Y41_K45E_YF] | 0.878
VKGGAYFPVTV [MCCC2_Y145_YF] | 0.444
EQMLEYMEQLQ [CFAP45_Y289] | 0.561
DLWEKYMDCGG [HAP1_Y440_R437W] | 0.775
VPANRYDLLCL [FARSB_Y72] | 0.654
TLCLCYKEIEE [ATP8B1_Y658] | 0.825
NNIDYYKNTTN [FGFR2_Y657_K659N] | 0.473

Molecular target: FGFR1 (UniProt P11362)
Sequence (P11362 whole entry, looked up): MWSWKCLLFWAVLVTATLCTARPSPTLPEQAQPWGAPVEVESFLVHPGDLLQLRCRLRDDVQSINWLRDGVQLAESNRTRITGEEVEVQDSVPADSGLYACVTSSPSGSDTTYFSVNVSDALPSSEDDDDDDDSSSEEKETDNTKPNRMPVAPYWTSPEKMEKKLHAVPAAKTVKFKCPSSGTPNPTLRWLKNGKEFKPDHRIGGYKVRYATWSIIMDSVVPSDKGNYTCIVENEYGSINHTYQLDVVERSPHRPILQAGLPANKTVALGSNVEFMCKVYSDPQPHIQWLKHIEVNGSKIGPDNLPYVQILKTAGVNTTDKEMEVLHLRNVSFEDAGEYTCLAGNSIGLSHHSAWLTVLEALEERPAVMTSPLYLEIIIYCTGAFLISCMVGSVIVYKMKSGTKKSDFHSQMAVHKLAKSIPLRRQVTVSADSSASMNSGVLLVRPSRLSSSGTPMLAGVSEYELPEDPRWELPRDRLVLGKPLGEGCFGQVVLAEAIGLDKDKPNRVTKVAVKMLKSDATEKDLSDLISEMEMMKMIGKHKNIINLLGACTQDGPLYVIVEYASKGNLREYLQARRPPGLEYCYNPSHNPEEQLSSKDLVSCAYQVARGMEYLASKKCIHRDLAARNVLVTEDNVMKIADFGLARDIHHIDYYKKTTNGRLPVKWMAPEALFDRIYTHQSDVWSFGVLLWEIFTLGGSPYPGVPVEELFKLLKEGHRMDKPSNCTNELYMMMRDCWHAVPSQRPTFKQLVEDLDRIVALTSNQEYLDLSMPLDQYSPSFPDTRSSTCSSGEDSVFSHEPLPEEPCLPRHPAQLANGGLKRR
Test: as above

Sequence | phosphorylation enrichment
AFGNLYGSRKQ [YIPF7_Y59_YF] | 0.397
ELANFYKLHHI [AK7_Y391_YF] | 0.561
QMVGKYASSFM [AVPR2_Y124_M123K_YF] | 0.516
RSSKMYLKTRS [LPL_Y329] | 0.8
CGTPDYIAREI [PRKCG_Y521_P524R] | 0.633
LTQRTYMSENN [GPAA1_Y49_A54N] | 1.13
QNTGHYSSDNT [TMEFF2_Y361] | 0.474
KGEDFYCVTCH [FHL1_Y149] | 0.579
KFLENYFDLEK [MMP3_Y41_K45E_YF] | 3.77
VKGGAYFPVTV [MCCC2_Y145_YF] | 0.713
EQMLEYMEQLQ [CFAP45_Y289] | 0.764
DLWEKYMDCGG [HAP1_Y440_R437W] | 0.6
VPANRYDLLCL [FARSB_Y72] | 0.493
TLCLCYKEIEE [ATP8B1_Y658] | 0.592
NNIDYYKNTTN [FGFR2_Y657_K659N] | 0.552

Molecular target: FGFR3 (UniProt P22607)
Test: as above

Sequence | phosphorylation enrichment
AFGNLYGSRKQ [YIPF7_Y59_YF] | 0.398
ELANFYKLHHI [AK7_Y391_YF] | 0.672
QMVGKYASSFM [AVPR2_Y124_M123K_YF] | 0.626
RSSKMYLKTRS [LPL_Y329] | 0.885
CGTPDYIAREI [PRKCG_Y521_P524R] | 0.866
LTQRTYMSENN [GPAA1_Y49_A54N] | 1.09
QNTGHYSSDNT [TMEFF2_Y361] | 0.691
KGEDFYCVTCH [FHL1_Y149] | 0.775
KFLENYFDLEK [MMP3_Y41_K45E_YF] | 2.14
VKGGAYFPVTV [MCCC2_Y145_YF] | 0.602
EQMLEYMEQLQ [CFAP45_Y289] | 0.846
DLWEKYMDCGG [HAP1_Y440_R437W] | 0.854
VPANRYDLLCL [FARSB_Y72] | 0.725
TLCLCYKEIEE [ATP8B1_Y658] | 1.05
NNIDYYKNTTN [FGFR2_Y657_K659N] | 0.605

Tested on: Fer (mouse)
Test: as above

Sequence | phosphorylation enrichment
AFGNLYGSRKQ [YIPF7_Y59_YF] | 0.409
ELANFYKLHHI [AK7_Y391_YF] | 0.874
QMVGKYASSFM [AVPR2_Y124_M123K_YF] | 0.431
RSSKMYLKTRS [LPL_Y329] | 0.541
CGTPDYIAREI [PRKCG_Y521_P524R] | 0.604
LTQRTYMSENN [GPAA1_Y49_A54N] | 0.867
QNTGHYSSDNT [TMEFF2_Y361] | 0.43
KGEDFYCVTCH [FHL1_Y149] | 0.504
KFLENYFDLEK [MMP3_Y41_K45E_YF] | 0.439
VKGGAYFPVTV [MCCC2_Y145_YF] | 0.419
EQMLEYMEQLQ [CFAP45_Y289] | 0.526
DLWEKYMDCGG [HAP1_Y440_R437W] | 0.578
VPANRYDLLCL [FARSB_Y72] | 0.486
TLCLCYKEIEE [ATP8B1_Y658] | 0.704
NNIDYYKNTTN [FGFR2_Y657_K659N] | 0.648

Molecular target: Fes (UniProt P07332)
Sequence (P07332 whole entry, looked up): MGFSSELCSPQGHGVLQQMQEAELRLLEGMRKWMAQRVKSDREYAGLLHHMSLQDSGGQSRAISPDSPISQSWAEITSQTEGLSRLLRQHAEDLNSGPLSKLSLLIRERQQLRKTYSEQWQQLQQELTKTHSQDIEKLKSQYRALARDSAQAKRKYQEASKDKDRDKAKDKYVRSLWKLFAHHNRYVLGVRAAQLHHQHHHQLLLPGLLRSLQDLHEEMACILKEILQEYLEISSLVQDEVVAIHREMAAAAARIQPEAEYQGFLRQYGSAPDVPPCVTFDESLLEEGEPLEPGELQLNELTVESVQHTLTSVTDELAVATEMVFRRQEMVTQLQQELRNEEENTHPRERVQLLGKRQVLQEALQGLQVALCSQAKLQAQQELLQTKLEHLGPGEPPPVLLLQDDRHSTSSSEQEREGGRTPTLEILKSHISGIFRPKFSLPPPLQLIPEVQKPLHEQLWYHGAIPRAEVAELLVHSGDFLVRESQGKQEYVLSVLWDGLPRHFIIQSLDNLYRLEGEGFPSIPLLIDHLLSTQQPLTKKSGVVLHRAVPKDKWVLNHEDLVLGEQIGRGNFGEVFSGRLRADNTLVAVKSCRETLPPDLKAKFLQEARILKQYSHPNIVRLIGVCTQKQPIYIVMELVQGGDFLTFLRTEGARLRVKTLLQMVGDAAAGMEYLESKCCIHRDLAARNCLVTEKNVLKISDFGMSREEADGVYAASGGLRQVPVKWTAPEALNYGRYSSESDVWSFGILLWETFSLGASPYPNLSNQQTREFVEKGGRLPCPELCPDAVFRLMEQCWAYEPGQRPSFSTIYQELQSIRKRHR
Test: as above

Sequence | phosphorylation enrichment
AFGNLYGSRKQ [YIPF7_Y59_YF] | 0.55
ELANFYKLHHI [AK7_Y391_YF] | 1.06
QMVGKYASSFM [AVPR2_Y124_M123K_YF] | 0.992
RSSKMYLKTRS [LPL_Y329] | 1.24
CGTPDYIAREI [PRKCG_Y521_P524R] | 1.13
LTQRTYMSENN [GPAA1_Y49_A54N] | 1.46
QNTGHYSSDNT [TMEFF2_Y361] | 0.532
KGEDFYCVTCH [FHL1_Y149] | 1.12
KFLENYFDLEK [MMP3_Y41_K45E_YF] | 1.23
VKGGAYFPVTV [MCCC2_Y145_YF] | 0.601
EQMLEYMEQLQ [CFAP45_Y289] | 0.994
DLWEKYMDCGG [HAP1_Y440_R437W] | 1.42
VPANRYDLLCL [FARSB_Y72] | 0.985
TLCLCYKEIEE [ATP8B1_Y658] | 1.96
NNIDYYKNTTN [FGFR2_Y657_K659N] | 0.745

Molecular target: Fyn (UniProt P06241)
Sequence (P06241 whole entry, looked up): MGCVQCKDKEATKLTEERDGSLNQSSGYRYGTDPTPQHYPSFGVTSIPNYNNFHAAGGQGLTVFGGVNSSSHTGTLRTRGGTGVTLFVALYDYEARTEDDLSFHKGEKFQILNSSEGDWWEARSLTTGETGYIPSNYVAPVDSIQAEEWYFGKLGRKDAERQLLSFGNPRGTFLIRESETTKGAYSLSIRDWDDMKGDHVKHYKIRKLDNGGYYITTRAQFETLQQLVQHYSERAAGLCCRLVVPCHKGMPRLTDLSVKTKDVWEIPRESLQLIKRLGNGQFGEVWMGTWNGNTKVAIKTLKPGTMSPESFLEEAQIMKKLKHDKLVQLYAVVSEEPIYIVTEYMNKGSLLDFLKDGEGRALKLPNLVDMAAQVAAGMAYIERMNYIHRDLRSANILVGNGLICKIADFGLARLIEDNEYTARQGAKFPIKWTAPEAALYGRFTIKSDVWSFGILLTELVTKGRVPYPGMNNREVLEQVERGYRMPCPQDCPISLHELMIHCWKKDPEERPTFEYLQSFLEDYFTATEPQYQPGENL
Test: as above

Sequence | phosphorylation enrichment
AFGNLYGSRKQ [YIPF7_Y59_YF] | 0.718
ELANFYKLHHI [AK7_Y391_YF] | 0.689
QMVGKYASSFM [AVPR2_Y124_M123K_YF] | 0.564
RSSKMYLKTRS [LPL_Y329] | 0.631
CGTPDYIAREI [PRKCG_Y521_P524R] | 0.53
LTQRTYMSENN [GPAA1_Y49_A54N] | 0.479
QNTGHYSSDNT [TMEFF2_Y361] | 0.545
KGEDFYCVTCH [FHL1_Y149] | 0.797
KFLENYFDLEK [MMP3_Y41_K45E_YF] | 0.467
VKGGAYFPVTV [MCCC2_Y145_YF] | 0.396
EQMLEYMEQLQ [CFAP45_Y289] | 0.549
DLWEKYMDCGG [HAP1_Y440_R437W] | 0.509
VPANRYDLLCL [FARSB_Y72] | 0.469
TLCLCYKEIEE [ATP8B1_Y658] | 0.521
NNIDYYKNTTN [FGFR2_Y657_K659N] | 0.417

Molecular target: Hck (UniProt P08631)
Sequence (P08631 whole entry, looked up): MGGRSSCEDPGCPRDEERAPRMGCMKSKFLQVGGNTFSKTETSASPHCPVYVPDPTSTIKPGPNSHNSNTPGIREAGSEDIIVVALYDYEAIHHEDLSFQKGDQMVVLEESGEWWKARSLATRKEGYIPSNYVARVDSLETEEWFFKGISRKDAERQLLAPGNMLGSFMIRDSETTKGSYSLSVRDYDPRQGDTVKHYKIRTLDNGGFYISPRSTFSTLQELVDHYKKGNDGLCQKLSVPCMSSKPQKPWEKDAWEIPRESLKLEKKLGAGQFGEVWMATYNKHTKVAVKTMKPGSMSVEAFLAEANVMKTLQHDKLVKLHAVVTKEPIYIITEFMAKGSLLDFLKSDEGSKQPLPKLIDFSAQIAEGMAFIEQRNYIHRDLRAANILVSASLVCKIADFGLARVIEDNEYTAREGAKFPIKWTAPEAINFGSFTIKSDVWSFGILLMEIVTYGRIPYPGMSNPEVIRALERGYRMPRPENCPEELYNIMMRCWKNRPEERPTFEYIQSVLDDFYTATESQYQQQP
Test: as above

Sequence | phosphorylation enrichment
AFGNLYGSRKQ [YIPF7_Y59_YF] | 2.93
ELANFYKLHHI [AK7_Y391_YF] | 0.796
QMVGKYASSFM [AVPR2_Y124_M123K_YF] | 0.413
RSSKMYLKTRS [LPL_Y329] | 0.758
CGTPDYIAREI [PRKCG_Y521_P524R] | 0.631
LTQRTYMSENN [GPAA1_Y49_A54N] | 0.703
